Results on 16 sequences are retold here after the nanobody polyreactivity screen of Harvey et al. (2022).

This data set in a line: yeast display, Sf9 membrane polyspecificity reagent, FACS + sequencing; frameworks hold sequencing errors. In short, it runs like this:
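After 36–48 hours of galactose induction, yeast (Saccharomyces cerevisiae BJ5465) displaying a synthetic nanobody library were stained at 4 °C for 1 hour with 10% biotinylated, detergent-solubilized Sf9 membrane reagent. Streptavidin microbeads enriched the stained cells before FACS sorting into low and high (top ~1%) gates on anti-HA and streptavidin fluorescence. Each clone's polyreactivity label reflects its gate of origin.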
For the sequence “QVQLVESGGGLVQAGGSLRLSCAASGRTFYTYAMGWYIQAPGKEREFVAAIRFSGGNTYYADSVKGRFTISRDNAKNTVYLQMKSLKPEDTAVYYCAARRLLYKYWTGGPYDYWGQGTQVTVSS”, the “polyreactivity (PSR sort gate)” value is on record as “high polyreactivity”.

In the case of “QVQLVESGGGLVQAGGSLGLSCAASGSIFSSNVMGWYRQAPGKERELVAAISGGGGSTYYADSVKGRFTISRDNAKNTGYLQMNSLKPEDTAVYYCNRVTTWARTPKAYGYWGQGTQVTVSS”, the “polyreactivity (PSR sort gate)” value is “high polyreactivity”.

On to “QVQLVDSGGGLVQAGGSLRLSCAASGRTFTIYAIGWYRQAPGKEREFVASITGSDGSTYYADSVKGRFTISRDNAKNTVYLQMNSLKPEDTAVYYCAAATSSAYDYWGQGTQVTVSS”, for which the “polyreactivity (PSR sort gate)” value is on record as “low polyreactivity”.

With “QVQLVESGGGLVQAGGSLRLSCAASGIIFRYYDMGWYRQAPGKERELVARITSRGGTYYADSVKGRFTISRDNATNTVYLKMNSLKPEDTAVYYCAASYLLTHGYAYNYWGQGTQVTVSS”, the “polyreactivity (PSR sort gate)” value is recorded as “high polyreactivity”.

For “QVQLVESGGGLVQAGGSLRLSCAASGRICDFYSMGWYRQAPGKERELVAAIDSDGSTNYADSVKGRFTISRDNAKNNVYLQMNSLKPEDTAVSYCNADIWAYTYRRYDYWGQGTQVTVSS”, the “polyreactivity (PSR sort gate)” value was “low polyreactivity”.

With “QVQLVESGGGLLQAGGSLRLSCAASGITFERNGMGWYRQAPGKERELVAAIRSGGSTYYADSVKGRFTISRDNAKNTVYLQMNTLKPEDTGVYYCAAVTQGGYTYLGDYWGQGTQVTVSS”, the “polyreactivity (PSR sort gate)” value was “low polyreactivity”.

With “QVQLVESGGGLVQAGGSLRLSCAASGSIYYTNAMGWYRQAPGKERELVAAIRWSGGRTYYADSVKGRFTISRDNAKNTVYLQMNSLKPEDTAVYYCNKVPRTPIPYKYGYWGQGTQVTVSS”, the “polyreactivity (PSR sort gate)” value was “high polyreactivity”.

For the sequence “QVQLVESGGGLVQAGGSLRLSCAASGSIFYVYAMGWYRQAPGKERELVAAIRRSGTSTYYADSVKGRFTISRDNAKNTVYLQMNSLKPEDSAVYYCAARYEVRHTLYNYWGQGTQVTVSS”, the “polyreactivity (PSR sort gate)” value is on record as “high polyreactivity”.

As to “QVQLVESGGGLVQAGGSLRLSCAASGLTFYFYAMGWYRQAPGKERELVAAISYSGGSTYYADSVKGRFTISRDKAENTVYLQMNSLKPEDTAVYYCAARPTDGSGWPYRWTSDYWGHGTQVTVSS”, the “polyreactivity (PSR sort gate)” value is listed as “low polyreactivity”.

In the case of “QVQLVESGGGLVQAGGSLRLSCADSGNIFSTYAMGWYRQEPGKERELVASISENGGSTYYADSVKGRFTISRDNAKNTVYLQMNCLKPEDTAVYYCAIGPLYSLFFQHDAPYRYGYWGQGTQVTVSS”, the “polyreactivity (PSR sort gate)” value is on record as “low polyreactivity”.

Regarding “QVQHDESGGCLVQAGGSLRLSCAASGITFILYDMGWYREAPGKVRELVASITSGGSTDYADSVKGRFTISRDNAKNTVYLQMNSLKPEDTAVYYCAARYVYPYWYGDYYWGQGTQVTVSS”, the “polyreactivity (PSR sort gate)” value was “low polyreactivity”.

For “QVQLVESGGGLVQAGGSLRLSCAASGRTFGRYAMGWYRQAPGKERELVAAISYSTDSTYYADSVKGRFTISRDNAKNTVYLQMNSLKPEDTAVYYCAADRLRTSGYKTIYDYWGQGTQVTVSS”, the “polyreactivity (PSR sort gate)” value was “low polyreactivity”.

For “QVQLVESGGGLLQAGGSLRLSCAASGITFVKYTMGWYRQAPGKERELVAAISRSDGRTYYADSVKGRFTISRDNAKNTVYLQMNSLQPEDTEVYYCNAVYGVIGKGYNYWGQGTQVTVSS”, the “polyreactivity (PSR sort gate)” value is recorded as “high polyreactivity”.

On to “QVQLVESGGGLVQAGGSLRLSCAASGIIFRRYAMGWYRQAPGKERELVAAISSRGGSTYYADSVKRRFTISRDNAKNTVYLQMNSLKPEDTAVYYCAKGFSGTGGSGDFGYWGQGTQVTVSS”, for which the “polyreactivity (PSR sort gate)” value is recorded as “high polyreactivity”.

“QVQLVESGGGLVQAGGSLRLSCAASGITFGSNTMGLYRQAPGKERELVAVITWSGGSTYYADSVKGRFTISRDNAKNTVYLQMNSLIPEDTAVYDCAKPGEVNGQPPPQTESAYDYRGQGTQVTVSS”: the “polyreactivity (PSR sort gate)” value is “low polyreactivity”.

As for “QVQLVESGGGLVQAGGSLRLSCAASGTFAFYTMGWYRPAPGKERELVAAISWDGGDTYYADSVKGRFTISRDNAKNTVYLQMNSLKPEDTAVYYCAADYSNSGYGYWGQGTQVTVSS”, the “polyreactivity (PSR sort gate)” value was “low polyreactivity”.
